{
  "source": "paper PMC9371905",
  "binders": {"B1": {"name": "AdML pre-mRNA (structured_RNA)", "RNA": "GAGCUCGGUACCCCGUUCGUCCUCACUCUCUUCCGCAUCGCUGUCUGCGAGGGCCAGCUGUUGGGGUGAGUACUCCCUCUCAAAAGCGGGCAUGACUUCUGCCCUCGAGUUAUUAACCCUCACUAAAGGCAGUAGUCAAGGGUUUCCUUGAAGCUUUCGUGCUGACCCUGUCCCUUUUUUUUCCACAGCUGCAGGUCGACGUUGAGGACAAACUCUUCGCGGUCUUUCCAGUACUCUU"}},
  "molecular_target": "SRSF1-RBD (UniProt Q07955 1-203)",
  "sequence (Q07955 1-203)": "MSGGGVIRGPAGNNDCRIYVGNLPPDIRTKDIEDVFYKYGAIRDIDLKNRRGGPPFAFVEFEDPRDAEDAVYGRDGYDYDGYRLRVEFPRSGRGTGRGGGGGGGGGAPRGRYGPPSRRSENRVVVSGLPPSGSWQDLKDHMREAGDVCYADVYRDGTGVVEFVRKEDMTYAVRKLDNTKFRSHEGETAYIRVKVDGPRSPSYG",
  "test": "EMSA",
  "data": [
    {"binder": "B1", "values": [
      {"measurement": "binding result", "value": "binds"}
    ]}
  ]
}
